Measurements published in patent publication US20180258163A1 (Chugai, published 2018).
Changes are numbered by the printed parent chain. Values belong to the binder of their own block, whether it stands above or below them.

Target: T1, soluble human FcγRIIb (human, UniProt P31994 43-217, limits assumed)
T1 construct: soluble His-tagged form; also called hFcγRIIb
T1 sequence (looked up): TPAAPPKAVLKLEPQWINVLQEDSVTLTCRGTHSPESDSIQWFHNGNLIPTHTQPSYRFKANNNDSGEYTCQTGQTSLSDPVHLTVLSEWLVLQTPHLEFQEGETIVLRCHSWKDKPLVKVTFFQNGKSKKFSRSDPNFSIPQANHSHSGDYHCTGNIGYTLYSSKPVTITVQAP
Experiment: SPR, Ab-IgE complex over captured hFcγRIIb, pH 7.4, 25C
Method: Fc region variant-containing antibody binding assays between soluble human FcγRIIb (a.k.a. “hFcγRIIb”) and antigen-antibody complexes were performed using BIACORE® T200 (GE Healthcare). Soluble hFcγRIIb was produced in the form of a His-tagged molecule using methods known in the art. An appropriate amount of an anti-His antibody was fixed onto Sensor chip CM5 (GE Healthcare) by the amine coupling method using a His capture kit (GE Healthcare) to capture hFcγRIIb. Next, an antibody-antigen complex and a running buffer (as a reference solution) was injected, and interaction was allowed to take place with the hFcγRIIb captured onto the sensor chip. 20 mM N-(2-Acetamido)-2-aminoethanesulfonic acid, 150 mM NaCl, 1.2 mM CaCl₂, and 0.05% (w/v) Tween 20 at pH 7.4 was used as the running buffer, and the respective buffer was also used to dilute the soluble hFcγRIIb. To regenerate the sensor chip, 10 mM glycine-HCl at pH 1.5 was used. All measurements were carried out at 25° C. Analyses were performed based on binding (RU) calculated from sensorgrains obtained by the measurements, and relative values when the binding amount of P600 was defined as 1.00 are shown. To calculate the parameters, the BIACORE® T100 Evaluation Software (GE Healthcare) was used.

relative binding (RU), P600=1.00: 1 fold
B1: Ab1H-P600/Ab1L (antibody, human IgG1, kappa, name in EU numbering)
heavy: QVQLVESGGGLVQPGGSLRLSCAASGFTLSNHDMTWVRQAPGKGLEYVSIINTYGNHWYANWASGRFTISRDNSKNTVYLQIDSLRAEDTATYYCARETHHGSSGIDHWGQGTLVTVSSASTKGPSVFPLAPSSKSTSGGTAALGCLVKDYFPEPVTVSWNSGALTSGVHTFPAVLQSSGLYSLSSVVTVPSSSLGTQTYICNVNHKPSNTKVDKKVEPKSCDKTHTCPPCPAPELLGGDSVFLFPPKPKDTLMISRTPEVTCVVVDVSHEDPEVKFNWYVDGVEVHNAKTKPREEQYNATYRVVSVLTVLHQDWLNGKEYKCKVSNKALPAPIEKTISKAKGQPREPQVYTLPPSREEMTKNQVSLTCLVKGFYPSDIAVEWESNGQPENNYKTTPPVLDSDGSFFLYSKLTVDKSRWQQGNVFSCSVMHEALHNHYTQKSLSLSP
light: DIQMTQSPSSVSASVGDRVTITCQASESIYSGLAWYQQKPGQPPKLLIYDHSTLASGVPSRFSGSGSGTEYALTISSLQPEDFATYYCQHADYAHHSDNVFGGGTKVEIKRTVAAPSVFIFPPSDEQLKSGTASVVCLLNNFYPREAKVQWKVDNALQSGNSQESVTEQDSKDSTYSLSSTLTLSKADYEKHKVYACEVTHQGLSSPVTKSFNRGEC
notes: copies: 2 + 2

relative binding (RU), P600=1.00: -0.07 fold
B2: Ab1H-P921/Ab1L (antibody, human IgG1, kappa, name in EU numbering)
heavy: QVQLVESGGGLVQPGGSLRLSCAASGFTLSNHDMTWVRQAPGKGLEYVSIINTYGNHWYANWASGRFTISRDNSKNTVYLQIDSLRAEDTATYYCARETHHGSSGIDHWGQGTLVTVSSASTKGPSVFPLAPSSKSTSGGTAALGCLVKDYFPEPVTVSWNSGALTSGVHTFPAVLQSSGLYSLSSVVTVPSSSLGTQTYICNVNHKPSNTKVDKKVEPKSCDKTHTCPPCPAPELLGGDSVFLFPPKPKDTLMISRTPEVTCVVVDVSHEDPEVKFNWYVDGVEVHNAKTKPREEQYNATYRVVSVLTVLHQDWLNGKEYKCKVSNKALPARIEKTISKAKGQPREPQVYTLPPSREEMTKNQVSLTCLVKGFYPSDIAVEWESNGQPENNYKTTPPVLDSDGSFFLYSKLTVDKSRWQQGNVFSCSVMHEALHNHYTQKSLSLSP
light: B1 light
notes: copies: 2 + 2

relative binding (RU), P600=1.00: 0.42 fold
B3: Ab1H-P908/Ab1L (antibody, human IgG1, kappa, name in EU numbering)
heavy: B2 heavy with R333P, N436R
light: B1 light
notes: copies: 2 + 2

relative binding (RU), P600=1.00: 3.85 fold
B4: Ab1H-P831/Ab1L (antibody, human IgG1, kappa, name in EU numbering)
heavy: B2 heavy with R333P, P389R
light: B1 light
notes: copies: 2 + 2

relative binding (RU), P600=1.00: 1.71 fold
B5: Ab1H-P846/Ab1L (antibody, human IgG1, kappa, name in EU numbering)
heavy: B2 heavy with R333P, Q388K
light: B1 light
notes: copies: 2 + 2

relative binding (RU), P600=1.00: 0.24 fold
B6: Ab1H-P912/Ab1L (antibody, human IgG1, kappa, name in EU numbering)
heavy: B2 heavy with T309R, R333P
light: B1 light
notes: copies: 2 + 2

relative binding (RU), P600=1.00: 2.21 fold
B7: Ab1H-P849/Ab1L (antibody, human IgG1, kappa, name in EU numbering)
heavy: B2 heavy with R333P, Q420R
light: B1 light
notes: copies: 2 + 2

relative binding (RU), P600=1.00: 0.85 fold
B8: Ab1H-P915/Ab1L (antibody, human IgG1, kappa, name in EU numbering)
heavy: B2 heavy with R333P, S402R
light: B1 light
notes: copies: 2 + 2

relative binding (RU), P600=1.00: -0.06 fold
B9: Ab1H-P919/Ab1L (antibody, human IgG1, kappa, name in EU numbering)
heavy: B2 heavy with P331R, R333P
light: B1 light
notes: copies: 2 + 2

relative binding (RU), P600=1.00: -0.04 fold
B10: Ab1H-P843/Ab1L (antibody, human IgG1, kappa, name in EU numbering)
heavy: B2 heavy with R333P, E382R
light: B1 light
notes: copies: 2 + 2

relative binding (RU), P600=1.00: 1.74 fold
B11: Ab1H-P906/Ab1L (antibody, human IgG1, kappa, name in EU numbering)
heavy: B2 heavy with R333P, G387R
light: B1 light
notes: copies: 2 + 2

relative binding (RU), P600=1.00: 1.73 fold
B12: Ab1H-P910/Ab1L (antibody, human IgG1, kappa, name in EU numbering)
heavy: B2 heavy with L311R, R333P
light: B1 light
notes: copies: 2 + 2

relative binding (RU), P600=1.00: 1.57 fold
B13: Ab1H-P847/Ab1L (antibody, human IgG1, kappa, name in EU numbering)
heavy: B2 heavy with R333P, N391K
light: B1 light
notes: copies: 2 + 2

relative binding (RU), P600=1.00: 0.73 fold
B14: Ab1H-P909/Ab1L (antibody, human IgG1, kappa, name in EU numbering)
heavy: B2 heavy with R333P, H437R
light: B1 light
notes: copies: 2 + 2

relative binding (RU), P600=1.00: 1.43 fold
B15: Ab1H-P851/Ab1L (antibody, human IgG1, kappa, name in EU numbering)
heavy: B2 heavy with R333P, N423R
light: B1 light
notes: copies: 2 + 2

relative binding (RU), P600=1.00: 0.25 fold
B16: Ab1H-P927/Ab1L (antibody, human IgG1, kappa, name in EU numbering)
heavy: B2 heavy with E296R, R333P
light: B1 light
notes: copies: 2 + 2

relative binding (RU), P600=1.00: 2.25 fold
B17: Ab1H-P840/Ab1L (antibody, human IgG1, kappa, name in EU numbering)
heavy: B2 heavy with R333P, T361K
light: B1 light
notes: copies: 2 + 2

relative binding (RU), P600=1.00: 1.86 fold
B18: Ab1H-P841/Ab1L (antibody, human IgG1, kappa, name in EU numbering)
heavy: B2 heavy with R333P, N363R
light: B1 light
notes: copies: 2 + 2

relative binding (RU), P600=1.00: -0.05 fold
B19: Ab1H-P925/Ab1L (antibody, human IgG1, kappa, name in EU numbering)
heavy: B2 heavy with Y298R, R333P
light: B1 light
notes: copies: 2 + 2

relative binding (RU), P600=1.00: 0.2 fold
B20: Ab1H-P928/Ab1L (antibody, human IgG1, kappa, name in EU numbering)
heavy: B2 heavy with E295R, R333P
light: B1 light
notes: copies: 2 + 2

relative binding (RU), P600=1.00: 0.01 fold
B21: Ab1H-P920/Ab1L (antibody, human IgG1, kappa, name in EU numbering)
heavy: B2 heavy with A332R, R333P
light: B1 light
notes: copies: 2 + 2

relative binding (RU), P600=1.00: 0.17 fold
B22: Ab1H-P829/Ab1L (antibody, human IgG1, kappa, name in EU numbering)
heavy: B2 heavy with R333P, S339R
light: B1 light
notes: copies: 2 + 2

relative binding (RU), P600=1.00: 1.88 fold
B23: Ab1H-P837/Ab1L (antibody, human IgG1, kappa, name in EU numbering)
heavy: B2 heavy with R333P, E347R
light: B1 light

relative binding (RU), P600=1.00: 2.08 fold
B24: Ab1H-P924/Ab1L (antibody, human IgG1, kappa, name in EU numbering)
heavy: B2 heavy with N317R, R333P
light: B1 light
notes: copies: 2 + 2

relative binding (RU), P600=1.00: 2.37 fold
B25: Ab1H-P842/Ab1L (antibody, human IgG1, kappa, name in EU numbering)
heavy: B2 heavy with R333P, Q364K
light: B1 light
notes: copies: 2 + 2

relative binding (RU), P600=1.00: -0.06 fold
B26: Ab1H-P918/Ab1L (antibody, human IgG1, kappa, name in EU numbering)
heavy: B2 heavy with L330R, R333P
light: B1 light
notes: copies: 2 + 2

relative binding (RU), P600=1.00: 1.72 fold
B27: Ab1H-P914/Ab1L (antibody, human IgG1, kappa, name in EU numbering)
heavy: B2 heavy with R333P, D401R
light: B1 light
notes: copies: 2 + 2

relative binding (RU), P600=1.00: 1.38 fold
B28: Ab1H-P845/Ab1L (antibody, human IgG1, kappa, name in EU numbering)
heavy: B2 heavy with R333P, E384K
light: B1 light
notes: copies: 2 + 2

relative binding (RU), P600=1.00: 1.38 fold
B29: Ab1H-P848/Ab1L (antibody, human IgG1, kappa, name in EU numbering)
heavy: B2 heavy with R333P, S417R
light: B1 light
notes: copies: 2 + 2

relative binding (RU), P600=1.00: 1.4 fold
B30: Ab1H-P852/Ab1L (antibody, human IgG1, kappa, name in EU numbering)
heavy: B2 heavy with R333P, S426K
light: B1 light
notes: copies: 2 + 2

relative binding (RU), P600=1.00: -0.06 fold
B31: Ab1H-P926/Ab1L (antibody, human IgG1, kappa, name in EU numbering)
heavy: B2 heavy with Q297R, R333P
light: B1 light
notes: copies: 2 + 2

relative binding (RU), P600=1.00: 1.93 fold
B32: Ab1H-P854/Ab1L (antibody, name in EU numbering)
heavy: B2 heavy with R333P, L445R
light: B1 light
notes: copies: 2 + 2

relative binding (RU), P600=1.00: 2.22 fold
B33: Ab1H-P850/Ab1L (antibody, human IgG1, kappa, name in EU numbering)
heavy: B2 heavy with R333P, Q421K
light: B1 light
notes: copies: 2 + 2

relative binding (RU), P600=1.00: 1.34 fold
B34: Ab1H-P905/Ab1L (antibody, human IgG1, kappa, name in EU numbering)
heavy: B2 heavy with R333P, N386R
light: B1 light
notes: copies: 2 + 2

relative binding (RU), P600=1.00: 1.63 fold
B35: Ab1H-P923/Ab1L (antibody, human IgG1, kappa, name in EU numbering)
heavy: B2 heavy with Q313R, R333P
light: B1 light
notes: copies: 2 + 2

relative binding (RU), P600=1.00: 1.27 fold
B36: Ab1H-P828/Ab1L (antibody, human IgG1, kappa, name in EU numbering)
heavy: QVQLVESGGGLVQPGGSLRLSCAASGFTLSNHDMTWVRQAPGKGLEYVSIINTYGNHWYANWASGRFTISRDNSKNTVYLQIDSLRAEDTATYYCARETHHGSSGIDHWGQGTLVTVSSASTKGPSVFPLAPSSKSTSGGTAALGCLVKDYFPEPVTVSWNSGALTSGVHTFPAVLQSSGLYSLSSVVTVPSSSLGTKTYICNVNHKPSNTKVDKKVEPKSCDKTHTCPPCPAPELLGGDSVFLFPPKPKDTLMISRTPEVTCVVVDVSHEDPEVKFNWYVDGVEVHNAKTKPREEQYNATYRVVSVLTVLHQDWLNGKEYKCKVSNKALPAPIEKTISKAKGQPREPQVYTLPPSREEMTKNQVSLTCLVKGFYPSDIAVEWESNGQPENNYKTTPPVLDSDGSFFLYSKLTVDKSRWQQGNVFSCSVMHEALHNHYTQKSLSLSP
light: B1 light
notes: copies: 2 + 2

relative binding (RU), P600=1.00: 1.24 fold
B37: Ab1H-P844/Ab1L (antibody, human IgG1, kappa, name in EU numbering)
heavy: B2 heavy with R333P, E384Q
light: B1 light
notes: copies: 2 + 2

relative binding (RU), P600=1.00: -0.05 fold
B38: Ab1H-P917/Ab1L (antibody, human IgG1, kappa, name in EU numbering)
heavy: B2 heavy with A329R, R333P
light: B1 light
notes: copies: 2 + 2
